# B1: E3 ubiquitin-protein ligase NEDD4 (Homo sapiens), P46934-3 (parent)
# chain: MAQSLRLHFAARRSNTYPLSETSGDDLDSHVHMCFKRPTRISTSNVVQMKLTPRQTALAPLIKENVQSQERSSVPSSENVNKKSSCLQISLQPTRYSGYLQSSNVLADSDDASFTCILKDGIYSSAVVDNELNAVNDGHLVSSPAICSGSLSNFSTSDNGSYSSNGSDFGSCASITSGGSYTNSVISDSSSYTFPPSDDTFLGGNLPSDSTSNRSVPNRNTTPCEIFSRSTSTDPFVQDDLEHGLEIMKLPVSRNTKIPLKRYSSLVIFPRSPSTTRPTSPTSLCTLLSKGSYQTSHQFIISPSEIAHNEDGTSAKGFLSTAVNGLRLSKTICTPGEVRDIRPLHRKGSLQKKIVLSNNTPRQTVCEKSSEGYSCVSVHFTQRKAATLDCETTNGDCKPEMSEIKLNSDSEYIKLMHRTSACLPSSQNVDCQININGELERPHSQMNKNHGILRRSISLGGAYPNISCLSSLKHNCSKGGPSQLLIKFASGNEGKVDNLSRDSNRDCTNELSNSCKPGWVVLDQPDAACHLQQQQEPSPLPPGWEERQDILGRTYYVNHESRRTQWKRPTPQDNLTDAENGNIQLQAQRAFTTRRQISEETESVDNRESSENWEIIREDEATMYSNQAFPSPPPSSNLDVPTHLAEELNARLTIFGNSAVSQPASSSNHSSRRGSLQAYTFEEQPTLPVLLPTSSGLPPGWEEKQDERGRSYYVDHNSRTTTWTKPTVQATVETSQLTSSQSSAGPQSQASTSDSGQQVTQPSEIEQGFLPKGWEVRHAPNGRPFFIDHNTKTTTWEDPRLKIPAHLRGKTSLDTSNDLGPLPPGWEERTHTDGRIFYINHNIKRTQWEDPRLENVAITGPAVPYSRDYKRKYEFFRRKLKKQNDIPNKFEMKLRRATVLEDSYRRIMGVKRADFLKARLWIEFDGEKGLDYGGVAREWFFLISKEMFNPYYGLFEYSATDNYTLQINPNSGLCNEDHLSYFKFIGRVAGMAVYHGKLLDGFFIRPFYKMMLHKPITLHDMESVDSEYYNSLRWILENDPTELDLRFIIDEELFGQTHQHELKNGGSEIVVTNKNKKEYIYLVIQWRFVNRIQKQMAAFKEGFFELIPQDLIKIFDENELELLMCGLGDVDVNDWREHTKYKNGYSANHQVIQWFWKAVLMMDSEKRIRLLQFVTGTSRVPMNGFAELYGSNGPQSFTVEQWGTPEKLPRAHTCFNRLDLPPYESFEELWDKLQMAIENTQGFDGVD
# Variants of: B1
# Settings: with spike_sars2 S
row,Variant,effect of a mutation on the interaction
1,R877Q,increasing interaction strength
2,I843R,increasing interaction strength

# From IntAct's records for PubMed 33762578
